Values of other authors as cited in PMC5530503.

Biological target: VEGFR2 (Homo sapiens) (UniProt P35968)
UniProt P35968, sequence (P35968 20-1356): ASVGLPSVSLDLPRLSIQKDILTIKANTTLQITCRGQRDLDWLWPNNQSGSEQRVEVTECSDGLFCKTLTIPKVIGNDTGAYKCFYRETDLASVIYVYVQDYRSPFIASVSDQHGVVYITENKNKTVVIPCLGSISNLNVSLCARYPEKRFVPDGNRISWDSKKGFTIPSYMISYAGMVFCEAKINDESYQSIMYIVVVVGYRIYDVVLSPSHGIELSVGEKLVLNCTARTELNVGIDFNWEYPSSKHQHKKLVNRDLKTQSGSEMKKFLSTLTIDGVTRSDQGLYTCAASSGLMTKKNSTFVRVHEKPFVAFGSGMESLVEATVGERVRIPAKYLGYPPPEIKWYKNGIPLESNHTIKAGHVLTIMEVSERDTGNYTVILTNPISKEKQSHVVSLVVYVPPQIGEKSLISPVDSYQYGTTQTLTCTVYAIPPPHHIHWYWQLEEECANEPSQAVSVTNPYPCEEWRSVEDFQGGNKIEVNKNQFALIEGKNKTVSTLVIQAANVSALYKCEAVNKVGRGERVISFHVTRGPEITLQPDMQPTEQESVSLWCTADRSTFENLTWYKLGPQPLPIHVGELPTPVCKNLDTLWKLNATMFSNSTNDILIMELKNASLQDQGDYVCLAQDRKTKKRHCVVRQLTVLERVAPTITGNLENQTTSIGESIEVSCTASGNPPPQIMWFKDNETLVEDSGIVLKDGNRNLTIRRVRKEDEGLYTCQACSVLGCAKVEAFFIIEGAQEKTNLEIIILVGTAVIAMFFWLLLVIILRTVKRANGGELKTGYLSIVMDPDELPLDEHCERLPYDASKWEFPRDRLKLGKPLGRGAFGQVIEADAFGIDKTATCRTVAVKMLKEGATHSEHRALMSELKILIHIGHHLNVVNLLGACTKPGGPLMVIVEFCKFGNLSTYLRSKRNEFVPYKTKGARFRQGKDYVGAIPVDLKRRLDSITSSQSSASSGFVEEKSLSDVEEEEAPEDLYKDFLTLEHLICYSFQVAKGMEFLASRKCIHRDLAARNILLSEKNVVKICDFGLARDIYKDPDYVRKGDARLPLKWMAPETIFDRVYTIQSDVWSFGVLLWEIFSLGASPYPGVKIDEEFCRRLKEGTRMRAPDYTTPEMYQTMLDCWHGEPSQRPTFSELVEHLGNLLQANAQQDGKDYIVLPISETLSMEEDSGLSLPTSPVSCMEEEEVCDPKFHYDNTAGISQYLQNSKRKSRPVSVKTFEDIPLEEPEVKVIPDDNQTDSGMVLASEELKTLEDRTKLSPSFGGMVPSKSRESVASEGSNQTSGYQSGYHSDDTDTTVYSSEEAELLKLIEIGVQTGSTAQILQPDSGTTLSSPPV

Kd: 0.037 nM
Substance: VEGF (from UniProt P15692)
